Test results as given in patent US20090318350A1, “PAN-HER ANTAGONISTS AND METHODS OF USE” (priority 2006, published 2009).
Where two headings read alike, the source gives them in different places.

Assays:
HER5 cells = conditions: cited from earlier work; for stimulation of cell proliferation in EGFR-dependent HER5 cells: isolated ligand variants, previously demonstrated
Her-3 [1] = biological target: T1, Her-3 (Homo sapiens, UniProt P21860); experiment: Phage ELISA whole-cell binding, T47D cells; parameters: host or cells: T47D human ductal carcinoma cells, whole-cell suspension; conditions: for Calculated binding (EC50) in T47D cells / binding properties relative to WVS and WVS-R41DL47G: phage fusion
T1 sequence (P21860 20-1342): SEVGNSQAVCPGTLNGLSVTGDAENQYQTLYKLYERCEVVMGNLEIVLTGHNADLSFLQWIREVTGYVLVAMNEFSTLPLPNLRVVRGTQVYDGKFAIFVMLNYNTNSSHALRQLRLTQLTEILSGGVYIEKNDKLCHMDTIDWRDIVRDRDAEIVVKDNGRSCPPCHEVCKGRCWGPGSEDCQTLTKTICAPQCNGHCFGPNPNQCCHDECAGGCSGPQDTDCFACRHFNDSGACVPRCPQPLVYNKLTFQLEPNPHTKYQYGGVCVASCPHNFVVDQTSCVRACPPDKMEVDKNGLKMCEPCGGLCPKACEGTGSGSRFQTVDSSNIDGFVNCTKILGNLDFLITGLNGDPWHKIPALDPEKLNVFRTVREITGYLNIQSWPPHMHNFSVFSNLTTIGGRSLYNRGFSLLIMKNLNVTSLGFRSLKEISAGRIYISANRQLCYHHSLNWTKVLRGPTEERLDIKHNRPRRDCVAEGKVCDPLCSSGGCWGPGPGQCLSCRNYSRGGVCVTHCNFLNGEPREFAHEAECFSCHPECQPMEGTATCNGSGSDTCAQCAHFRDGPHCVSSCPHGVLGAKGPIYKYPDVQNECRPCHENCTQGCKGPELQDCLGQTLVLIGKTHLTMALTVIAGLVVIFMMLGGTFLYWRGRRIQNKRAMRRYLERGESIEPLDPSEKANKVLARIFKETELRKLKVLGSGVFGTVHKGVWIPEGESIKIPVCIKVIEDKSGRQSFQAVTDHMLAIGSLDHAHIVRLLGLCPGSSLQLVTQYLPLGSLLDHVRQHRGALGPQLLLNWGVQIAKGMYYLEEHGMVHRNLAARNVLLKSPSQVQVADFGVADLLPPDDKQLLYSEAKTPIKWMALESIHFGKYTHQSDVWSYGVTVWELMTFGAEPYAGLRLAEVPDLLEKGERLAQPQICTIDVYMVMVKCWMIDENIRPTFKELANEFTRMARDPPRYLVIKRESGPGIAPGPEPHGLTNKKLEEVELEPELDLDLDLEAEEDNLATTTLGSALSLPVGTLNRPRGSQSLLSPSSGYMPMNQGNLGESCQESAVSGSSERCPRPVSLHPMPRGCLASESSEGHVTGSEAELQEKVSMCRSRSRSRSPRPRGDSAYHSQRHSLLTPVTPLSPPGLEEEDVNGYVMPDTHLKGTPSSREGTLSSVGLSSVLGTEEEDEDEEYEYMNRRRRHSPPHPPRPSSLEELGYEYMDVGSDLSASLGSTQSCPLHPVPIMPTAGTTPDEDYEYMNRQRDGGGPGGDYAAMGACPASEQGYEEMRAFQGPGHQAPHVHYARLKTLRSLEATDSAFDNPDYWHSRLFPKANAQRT
Method: (§1) A431 cells for EGFR binding or T47D cells for HER3 binding were grown as monolayers in tissue culture flasks in media containing fetal bovine serum. Cells were trypsinized, neutralized with growth medium, washed twice with DPBS and resuspended in ice-cold PBS-Glu-T. 105 cells were transferred to 96 well plates and incubated on ice for 1 hour in the presence of varied concentrations of phage. Cells were centrifuged and washed 5× with PBS-T then incubated for one hour at room temperature with anti-M13 pVIII coat protein antibody conjugated with horseradish peroxidase (HRP). Cells again centrifuged and washed 5× with PGS-T. Color developed with TMP followed by H2SO4. Cells pelleted and supernatant transferred to optically transparent plate for measurement of absorbance at 450 nm.
(§2) Theoretical estimates were also performed. “N.D.” indicates not determined. […]
(§3) Human ductal carcinoma cells were obtained from ATCC. They were maintained in RPMI 1640 medium with 2 mM L-glutamine adjusted to contain 1.5 g/L sodium bicarbonate, 4.5 g/L glucose, 10 mM HEPES, and 1.0 mM sodium pyruvate and supplemented with 0.2 Units/ml bovine insulin, 90%; fetal bovine serum, 10%. T47-D cells were used to evaluate HER3 receptor binding.
(§4) The phage fusion ligand variants were then evaluated for binding using the assay described herein in both A431 cells (to investigate EGFR binding) and T47D cells (to investigate HER3 receptor binding) and EC50s were calculated.

EGFR = biological target: T2, EGFR (Homo sapiens, UniProt P00533); experiment: Phage ELISA whole-cell binding, A431 cells; conditions: for Calculated binding (EC50): A431 whole cell suspension, Abs450, Table 10; for Calculated binding (EC50) / ligand binding, from the binding curves: phage-displayed ligand; for Calculated binding (EC50) in A431 cells / binding properties relative to WVS and WVS-R41DL47G: phage fusion; for binding properties relative to WVS and WVS-R41DL47G / ligand binding, from the binding curves: A431 cells
T2 construct: host or cells: A431 human epidermoid carcinoma cells, whole-cell suspension
Method: as §1, with “nm. […]” for “nm.”
The human epidermoid carcinoma line, A431, were obtained from ATCC. Stock cultures of A-431 were propagated in DMEM medium containing 10% fetal bovine serum. A431 cells were used to evaluate EGFR receptor binding.
as §4

MCF-7 cells = conditions: cited from earlier work
Her-3 [2] = biological target: T1, Her-3; conditions: particularly for Her-3; cited from earlier work
HER3 receptor = experiment: Phage ELISA whole-cell binding, T47D cells; parameters: species or system human; conditions: A431 (EGFR) versus T47D (HER3) binding, phage fusion
Method: as §1, §2
as §3, with “T47-D cells were used to evaluate HER3 receptor binding.” left out
as §4

[3] = T47D whole cell suspension, phage-displayed ligand, Abs450
[4] = isolated ligand variants, previously demonstrated

Estimated binding (EC50) (Her-3 [1]; [3])	Calculated binding (EC50) (EGFR)	Calculated binding (EC50) in A431 cells (EGFR; Table 14, first half loop)	Calculated binding (EC50) in A431 cells (EGFR; Table 15, second half loop)	Calculated binding (EC50) in T47D cells (Her-3 [1]; Table 14, first half loop)	Calculated binding (EC50) in T47D cells (Her-3 [1]; Table 15, second half loop)	Substance	stimulation of cell proliferation in EGFR-dependent HER5 cells (HER5 cells)	further results
1 × 10^10 phage titer/mL						T1E: EGF/TGFα chimera, amino terminal residues NSDSE replaced with VVSHFND from TGF-α; SEQ ID NO 4 (VVSHFNDCPLSHDGYCLHDGVCMYIEALDKYACNCVVGYIGERCQYRDLKWWELR; Ligand Variant) [reference compound]	capable of stimulating cell proliferation	
9 × 10^8 phage titer/mL	6.6 × 10^8 phage titer/mL	1.9 × 10^9 phage titer/mL	1.4 × 10^9 phage titer/mL	7.5 × 10^9 phage titer/mL	7.6 × 10^9 phage titer/mL	WVS: EGF variant, amino acids 2 and 3 replaced with W and V, N-terminus NWVSE; SEQ ID NO 3 (NWVSECPLSHDGYCLHDGVCMYIEALDKYACNCVVGYIGERCQYRDLKWWELR; Ligand Variant) [reference compound]	capable of stimulating cell proliferation	stimulation of MCF-7 cells (MCF-7 cells; [4]): stimulated most effectively; binding affinity (Her-3 [2]): high binding affinity; Calculated binding (EC50) (Her-3 [1]; T47D whole cell suspension, phage-displayed ligand, Abs450, Table 9): 9.8 × 10^9 phage titer/mL
			3.9 × 10^9 phage titer/mL		2.9 × 10^10 phage titer/mL	D4: WVS background, B-loop MYIEAYRVKT (second half YRVKT); SEQ ID 42 (Ligand Variant)		binding properties relative to WVS and WVS-R41DL47G (EGFR): intermediate binding properties; binding properties relative to WVS and WVS-R41DL47G (Her-3 [1]; T47D cells): intermediate binding properties
		3.6 × 10^10 phage titer/mL		8.6 × 10^10 phage titer/mL		D4-2: WVS background, B-loop YRVKTLDKYA (first half YRVKT); SEQ ID 43 (Ligand Variant)		receptor binding selectivity (HER3 receptor): bind only the HER3 receptor
>1 × 10^12 phage titer/mL	5.8 × 10^11 phage titer/mL					wvs-R41D: WVS background, R at position 41 replaced by D; SEQ ID NO 6 (NWVSECPLSHDGYCLHDGVCMYIEALDKYACNCVVGYIGEDCQYRDLKWWELR; Ligand Variant)		ligand binding, from the binding curves (EGFR): greatly attenuated
	4.8 × 10^12 phage titer/mL	2.8 × 10^10 phage titer/mL	4.0 × 10^10 phage titer/mL	1.1 × 10^12 phage titer/mL	2.6 × 10^11 phage titer/mL	wvs-R41DL47G: WVS background, R at position 41 replaced by D, L at position 47 replaced by G; SEQ ID NO 5 (NWVSECPLSHDGYCLHDGVCMYIEALDKYACNCVVGYIGEDCQYRDGKWWELR; Ligand Variant)		ligand binding, from the binding curves (EGFR): greatly attenuated; ligand binding, from the binding curves (Her-3 [1]; T47D cells, phage-displayed ligand): greatly attenuated
	6.6 × 10^10 phage titer/mL					wvs-L47G: WVS background, L at position 47 replaced by G; SEQ ID NO 7 (NWVSECPLSHDGYCLHDGVCMYIEALDKYACNCVVGYIGERCQYRDGKWWELR; Ligand Variant)		
			5.2 × 10^9 phage titer/mL		3.1 × 10^10 phage titer/mL	E8: WVS background, B-loop MYIEATKYRG (second half TKYRG); SEQ ID 44 (Ligand Variant)		binding properties relative to WVS and WVS-R41DL47G (EGFR): intermediate binding properties; binding properties relative to WVS and WVS-R41DL47G (Her-3 [1]; T47D cells): intermediate binding properties
						BiR: heregulin/EGF chimera, amino terminal residues NSDSE replaced with heregulin SHLVK; SEQ ID NO 2 (SHLVKCPLSHDGYCLHDGVCMYIEALDKYACNCVVGYIGERCQYRDLKWWELR; Ligand Variant)	capable of stimulating cell proliferation	stimulation of HER5 cells (HER5 cells; stated as known): can be stimulated; stimulation of MCF-7 cells (MCF-7 cells; [4]): very weakly; stimulation of MCF-7 cells (MCF-7 cells; stated as known): can be stimulated
